{"source": "paper PMC3529988", "origin": "cited, not measured here", "target": "E2F TD (Homo sapiens) (UniProt Q01094)", "sequence (Q01094 368-437)": "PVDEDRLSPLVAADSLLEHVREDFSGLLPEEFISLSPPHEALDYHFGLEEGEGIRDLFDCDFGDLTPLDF", "note": "pKd: −log10 of the molar value.", "data": [{"substance": "Rb pocket (from UniProt P06400)", "values": [{"measurement": "pKd", "result": 7.30}]}]}
